Measured values published in patent CN114028562A (JIANGSU QYUNS BIOMEDICAL CO LTD, dated 2022).

Key:
[1] = biological target: T1, 人胸腺基质淋巴细胞生成素(Human Thymic Stromal Lymphopoietin, TSLP) (human, UniProt Q969D9 29-159); test: SPR, Biacore T200, 25°C, antibody captured on Protein A chip, TSLP as analyte, 1:1 model, mean of three runs
T1 construct: also called 人TSLP; hTSLP

[2] = biological target: 食蟹猴TSLP (cynomolgus monkey, UniProt A0A7N9CAT7 29-159); test: cell-based or functional assay
[3] = biological target: T1, 人胸腺基质淋巴细胞生成素(Human Thymic Stromal …); test: cell-based or functional assay

Sequence of 食蟹猴TSLP (A0A7N9CAT7 entry or part of it): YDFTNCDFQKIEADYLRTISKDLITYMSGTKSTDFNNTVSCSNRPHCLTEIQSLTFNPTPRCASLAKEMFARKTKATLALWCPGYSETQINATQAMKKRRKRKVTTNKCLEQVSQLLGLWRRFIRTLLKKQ

| Binder | Kd [1] [nM] | koff [1] [s⁻¹] | kon [1] [M⁻¹ s⁻¹] | IC50, inhibition of cynomolgus TSLP-induced STAT5 phosphorylation in SW756-STAT5-Luciferase reporter cells [2] [ng/mL] | IC50, inhibition of human TSLP-induced STAT5 phosphorylation in SW756-STAT5-Luciferase reporter cells [3] [ng/mL] | IC50, inhibition of human TSLP-induced TARC(CCL17) release from human PBMC [3] [ng/mL] | IC50, inhibition of human TSLP-induced TARC(CCL17) release from human whole blood [3] [ng/mL] |
| --- | --- | --- | --- | --- | --- | --- | --- |
| QX008N(HZD8G2-57) (antibody, V domains shown) VH: EVQLVESGGGLVQPGGSLRLSCAASGFSLSSYYMSWVRQAPGKGLEWVGFISYGGSAYHATWAQGRFTISKDNSKNTLYLQMNSLRAEDTAVYYCAREFRSMTYGAEWGIWGQGTLVTVSS VL: AYQMTQSPSSVSASVGDRVTITCQASESIYDTLAWYQQKPGKAPKLLIYSASSLASGVPSRFSGSGSGTDFTLTISSLQPEDFATYYCQQGYTMPDVDKNPFGGGTKVEIKR | 0.0175 | 2.99e-05 | 1.74e+06 | 0.889 | 0.837 | 77.1 | 0.839 |
| Tezepelumab (antibody, V domains shown) VH: QMQLVESGGGVVQPGRSLRLSCAASGFTFRTYGMHWVRQAPGKGLEWVAVIWYDGSNKHYADSVKGRFTITRDNSKNTLNLQMNSLRAEDTAVYYCARAPQWELVHEAFDIWGQGTMVTVSS VL: SYVLTQPPSVSVAPGQTARITCGGNNLGSKSVHWYQQKPGQAPVLVVYDDSDRPSWIPERFSGSNSGNTATLTISRGEAGDEADYYCQVWDSSSDHVVFGGGTKLTVLG |  |  |  | 1.88 |  |  |  |
